The target in assay [1] is His6-OAZ-GSY-SPM-Ctag (human | Neisseria meningitidis serogroup B (strain MC58)) (UniProt Q9JYV5). The experiment in a line: cross-linking; NeissLock: Ca2+-induced aspartic anhydride on OAZ reacts with the docked partner; purified proteins mixed at 10 µM each or as indicated (AZI 2.5 µM each; Fig. 4b 0.5 µM each; 30 µM ODC with 10 µM OAZ-Y-SPM), 37 °C, HBS pH 7.4 with 2 mM TCEP, 10 mM CaCl2 unless varied (pH 6.5-8.5, 0.5-10 mM Ca2+, TBS, lyophilised probe); SDS-PAGE with Coomassie, intact ESI-MS, tryptic LC-MS/MS.

Assay [2] has as its target AviTag-His6-OAZ-GSY-SPM-Ctag (wt, with C175A) (human | Neisseria meningitidis serogroup B (strain MC58)) (UniProt Q9JYV5). The experiment in a line: SPR; Biacore T200; biotinylated AviTag-OAZ-GSY-SPM variants immobilised with the Biotin CAPture Kit, ODC flowed over; HBS with 2 mM TCEP and 0.02 mM PLP; 25 °C; 1:1 binding model. On the technique in general: Surface plasmon resonance follows binding to a sensor surface in real time, without labels.

Bounds are passed on as bounds.

B1: ODC ΔN ΔC 4KR with K92 re-introduced (enzyme)
chain: DCHFLDEGFTAKDILDQKINEVSSSDDKDAFYVADLGDILKKHLRWLKALPRVTPFYAVKCNDSRAIVRTLAATGTGFDCASKTEIQLVQSLGVPPERIIYANPCKQVSQIRYAANNGVQMMTFDSEVELMKVARAHPKAKLVLRIATDDSKAVCRLSVKFGATLRTSRLLLERAKELNIDVVGVSFHVGSGCTDPETFVQAISDARCVFDMGAEVGFSMYLLDIGGGFPGSEDVKLKFEEITGVINPALDKYFPSDSGVRIIAEPGRYYVASAFTLAVNIIAKKIVLKEQTGSDDEDESSEQTFMYYVNDGVYGSFNCILYDHAHVKPLLQKRPKPDEKYYSSSIWGPTCDGLDRIVERCDLPEMHVGDWMLFENMGAYTVAAASTFNGFQRPTIYYVMSGPAWQLMQQFQ
B1 gave a conjugation compared to wild-type ODC in assay [1] of 89%.

B2: His6-ODC-Ctag (human Ornithine Decarboxylase) (enzyme)
chain: NNFGNEEFDCHFLDEGFTAKDILDQKINEVSSSDDKDAFYVADLGDILKKHLRWLKALPRVTPFYAVKCNDSKAIVKTLAATGTGFDCASKTEIQLVQSLGVPPERIIYANPCKQVSQIKYAANNGVQMMTFDSEVELMKVARAHPKAKLVLRIATDDSKAVCRLSVKFGATLRTSRLLLERAKELNIDVVGVSFHVGSGCTDPETFVQAISDARCVFDMGAEVGFSMYLLDIGGGFPGSEDVKLKFEEITGVINPALDKYFPSDSGVRIIAEPGRYYVASAFTLAVNIIAKKIVLKEQTGSDDEDESSEQTFMYYVNDGVYGSFNCILYDHAHVKPLLQKRPKPDEKYYSSSIWGPTCDGLDRIVERCDLPEMHVGDWMLFENMGAYTVAAASTFNGFQRPTIYYVMSGPAWQLMQQFQ
Usually Kd stands for a measure of binding affinity in units of concentration. On to B2, for which, in assay [1], the coupling yield after 2 h, lyophilized OAZ-GSY-SPM was determined as 51%; the coupling yield after 2 h, untreated control came out at 48%; the coupling yield at 0.5 mM Ca2+ compared to 10 mM Ca2+ after 2 h turned out to be 78%; the coupling yield in TBS compared to HBS after 2 h was determined as 95%. This molecule came in with a half-time of the conjugation reaction at pH 7.0 in assay [1] of less than 2 min. The molecule further had a Kd in assay [2] of 120 nM.

Source of the values: PMC7846742.
